One block for each substance: values may come before it.
Tests used:
[1] = target: rHuman EGF R/Fc Chimera, CF (R&D Systems Cat#344-ER) (human) (UniProt P00533); experiment: ECL (MSD) multispot binding assay, antigen spotted on plate, 20 nM Fab
[2] = target: rHuman ErbB2/Fc Chimera, CF (R&D Systems Cat#1129-ER) (human) (UniProt P04626); experiment: as above
[3] = target: rHuman HGF R/c-MET/Fc Chimera, CF (R&D Systems Cat#358-MT/CF) (human) (UniProt P08581); experiment: ECL multispot (MSD) binding assay, antigen spotted on plate, Fab 0.04 uM
[4] = target: rHuman IGF-1 sR, CF (R&D Systems Cat#391-GR) (human) (UniProt P08069); experiment: as above
[5] = target: rHuman Notch-1/Fc Chimera, CF (R&D Systems Cat#3647-TK) (human) (UniProt P46531); experiment: ECL Multispot (MSD), antigen spotted, Fab
[6] = target: rHuman HGF R/c-MET/Fc Chimera, CF (R&D Systems Cat#358-MT/CF) (human) (UniProt P08581); experiment: ECL Multispot (MSD), antigen spotted, Fab
[7] = target: Recombinant Human DLL4 (R&D Systems Cat#1506-D4/CF) (human) (UniProt Q9NR61); experiment: ECL Multispot (MSD), antigen spotted, Fab
[8] = target: rHuman P-Cadherin/Fc Chimera, CF (R&D Systems Cat#861-PC) (human) (UniProt P22223); experiment: ECL multispot (MSD) binding assay, antigens spotted on plate, 20 nM Fab
[9] = target: human Delta-like ligand 4 (DLL4), full-length, expressed on CHO cells (human) (UniProt Q9NR61); experiment: cell-based or functional assay
[10] = target: rHuman CD44/Fc Chimera, CF (R&D Systems Cat#3660-CD) (human) (UniProt P16070); experiment: MSD Multispot ECL, antigen spotted on plate, Fab in solution; blank spot of the row 240
[11] = target: rHuman IGF-1 sR, (IGF-1 sR), CF (R&D Systems Cat#391-GR) (human) (UniProt P08069); experiment: as above
[12] = target: rHuman ErbB2/Fc Chimera, CF (R&D Systems Cat#1129-ER) (human) (UniProt P04626); experiment: as above
[13] = target: rHuman Erythropoietin R/Fc Chimera, CF (R&D Systems Cat#963-ER) (human) (UniProt P19235); experiment: ECL multispot (MSD) binding assay, antigens spotted on plate, 20 nM Fab
[14] = target: human DLL4, full-length, expressed on the surface of CHO cells (human) (UniProt Q9NR61); experiment: cell-based or functional assay
[15] = target: rHuman Erythropoietin R/Fc Chimera, CF (R&D Systems Cat#963-ER) (human) (UniProt P19235); experiment: ECL multispot (MSD) binding assay, antigen spotted on plate, Fab 0.04 uM
[16] = target: rHuman Notch-1/Fc Chimera, CF (R&D Systems Cat#3647-TK) (human) (UniProt P46531); experiment: as above
[17] = target: rHuman CD44/Fc Chimera, CF (R&D Systems Cat#3660-CD) (human) (UniProt P16070); experiment: as above

ECL signal/blank ratio [1]: 2.9
ECL signal/blank ratio [2]: 3
Substance: Fab VH3-23_IGHD2-21*01>3_IGHJ6*01 H100E/S108P/Y113G/Y111H & V2-13_IGLJ2*01

ECL multispot value [1]: 3.7
Substance: Fab VH3-23_IGHD2-21*01>3_IGHJ6*01 H100E/S108P/Y113G Y112R & V2-13_IGLJ2*01

ECL signal [3]: 909
ECL signal [4]: 943
Substance: Fab VH5-51_IGHD5-18*01>3_IGHJ4*01 G100K/G104T (H:KT) & V3-4_IGLJ1*01 S99A

ECL signal/blank ratio [5]: 3
ECL signal/blank ratio [6]: 3.2
ECL signal/blank ratio [7]: 2.9
Substance: Fab VH3-23_IGHD3-10*01>3_IGHJ6*01 Y111R & O12_IGKJ1*01

ECL signal [3]: 1150
ECL signal [4]: 1090
Substance: Fab VH5-51_IGHD5-18*01>3_IGHJ4*01 G100K/G104T (H:KT) & V3-4_IGLJ1*01 M94A

ECL signal [3]: 1130
ECL signal [4]: 1050
Substance: Fab VH5-51_IGHD5-18*01>3_IGHJ4*01 G100K/G104T (H:KT) & V3-4_IGLJ1*01 Y93A

ECL multispot signal (ratio to blank; column not labelled) [8]: 2.7
Substance: Fab VH3-23_IGHD2-21*01>3_IGHJ6*01 H100E/S108P/Y113G Y109G & V2-13_IGLJ2*01

Notch1 luciferase reporter luminescence, T98G reporter cells + CHO-DLL4, 0.8 nM Fab, replicate 1 [9]: 4740
Notch1 luciferase reporter luminescence, T98G reporter cells + CHO-DLL4, 0.8 nM Fab, replicate 2 [9]: 4890
Notch1 luciferase reporter luminescence, T98G reporter cells + CHO-DLL4, 0.8 nM Fab, replicate 3 [9]: 3820
Notch1 luciferase reporter luminescence, T98G reporter cells + CHO-DLL4, 0.8 nM Fab, replicate 4 [9]: 4080
Notch1 luciferase reporter luminescence, T98G reporter cells + CHO-DLL4, 4 nM Fab, replicate 1 [9]: 4840
Notch1 luciferase reporter luminescence, T98G reporter cells + CHO-DLL4, 4 nM Fab, replicate 2 [9]: 4880
Notch1 luciferase reporter luminescence, T98G reporter cells + CHO-DLL4, 4 nM Fab, replicate 3 [9]: 4250
Notch1 luciferase reporter luminescence, T98G reporter cells + CHO-DLL4, 4 nM Fab, replicate 4 [9]: 4670
Notch1 luciferase reporter luminescence, T98G reporter cells + CHO-DLL4, 20 nM Fab, replicate 1 [9]: 4380
Notch1 luciferase reporter luminescence, T98G reporter cells + CHO-DLL4, 20 nM Fab, replicate 2 [9]: 4480
Notch1 luciferase reporter luminescence, T98G reporter cells + CHO-DLL4, 20 nM Fab, replicate 3 [9]: 3960
Notch1 luciferase reporter luminescence, T98G reporter cells + CHO-DLL4, 20 nM Fab, replicate 4 [9]: 3990
Substance: Fab VH1-46_IGHD6-6*01_IGHJ1*01 S102A/S103P/S104F/H111F I51V/N52L/S54T/G56H & L6_IGKJ1*01 S28N/S30D/S31H S52L/A55S

ECL signal [10]: 513
ECL signal [11]: 788
ECL signal [12]: 921
Substance: Fab VH5-51_IGHD5-18*01>3_IGHJ4*01 G100K/G104T W33A & V3-4_IGLJ1*01

ECL multispot signal (ratio to blank; column not labelled) [13]: 3.7
ECL multispot signal (ratio to blank; column not labelled) [8]: 2.9
Substance: Fab VH3-23_IGHD2-21*01>3_IGHJ6*01 H100E/S108P/Y113G Y110H & V2-13_IGLJ2*01

Notch1 luciferase reporter luminescence, T98G reporter cells + CHO-DLL4, 0.8 nM IgG, replicate 1 [14]: 4440
Notch1 luciferase reporter luminescence, T98G reporter cells + CHO-DLL4, 0.8 nM IgG, replicate 2 [14]: 4520
Notch1 luciferase reporter luminescence, T98G reporter cells + CHO-DLL4, 0.8 nM IgG, replicate 3 [14]: 3900
Notch1 luciferase reporter luminescence, T98G reporter cells + CHO-DLL4, 0.8 nM IgG, replicate 4 [14]: 3980
Notch1 luciferase reporter luminescence, T98G reporter cells + CHO-DLL4, 4 nM IgG, replicate 1 [14]: 4260
Notch1 luciferase reporter luminescence, T98G reporter cells + CHO-DLL4, 4 nM IgG, replicate 2 [14]: 3860
Notch1 luciferase reporter luminescence, T98G reporter cells + CHO-DLL4, 4 nM IgG, replicate 3 [14]: 3950
Notch1 luciferase reporter luminescence, T98G reporter cells + CHO-DLL4, 4 nM IgG, replicate 4 [14]: 3760
Notch1 luciferase reporter luminescence, T98G reporter cells + CHO-DLL4, 20 nM IgG, replicate 1 [14]: 1250
Notch1 luciferase reporter luminescence, T98G reporter cells + CHO-DLL4, 20 nM IgG, replicate 2 [14]: 1270
Notch1 luciferase reporter luminescence, T98G reporter cells + CHO-DLL4, 20 nM IgG, replicate 3 [14]: 1170
Notch1 luciferase reporter luminescence, T98G reporter cells + CHO-DLL4, 20 nM IgG, replicate 4 [14]: 1190
Notch1 luciferase reporter luminescence, T98G reporter cells + CHO-DLL4, 100 nM IgG, replicate 1 [14]: 757
Notch1 luciferase reporter luminescence, T98G reporter cells + CHO-DLL4, 100 nM IgG, replicate 2 [14]: 807
Notch1 luciferase reporter luminescence, T98G reporter cells + CHO-DLL4, 100 nM IgG, replicate 3 [14]: 678
Notch1 luciferase reporter luminescence, T98G reporter cells + CHO-DLL4, 100 nM IgG, replicate 4 [14]: 688
Substance: IgG of VH1-46_IGHD6-6*01_IGHJ1*01 S102A/S103P/S104F/H111F I51V/N52L/S54T/G56H (APFF VLTH) & L6_IGKJ1*01 S28N/S30D/S31H S52L/A55S (NDH LS) (antibody)

ECL signal [15]: 684
ECL signal [16]: 715
ECL signal [17]: 678
ECL signal [3]: 1120
ECL signal [4]: 927
Substance: Fab VH5-51_IGHD5-18*01>3_IGHJ4*01 G100K/G104T (H:KT) & V3-4_IGLJ1*01 S96A
